In the supplement of paper PMC10567573:
± gives the standard deviation.

Assay: protein stability index of a GFP-peptide fusion (GPS, HEK-293T) (PSI 1-6); higher = more stable
Conditions: c terminus: a fixed tail appended
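Also: 24-mer peptide tiles fused after GFP, lentivirally expressed, FACS-sorted into six equal bins by GFP/DsRed ratio, decoded by Illumina sequencing, PSI is the read-weighted mean bin number.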

Sequence | protein stability index (treatment: DMSO) | protein stability index (treatment: MLN4924 1 uM, 8 h)
IRVLLAFIVLFLLWPFAWLQVAGL [LPCAT4] | 2.6 ± 0.69 | 3.14 ± 0.44
IVKAMASPESGLEVRDRMLLKITI [DVL3] | 3.12 ± 0.44 | 2.9 ± 0.55
IVNDELYLNGASVLPHKSIGESVP [GMPPB] | 3.67 ± 0.24 | 3.4 ± 0.29
IYAFAGMTNHQLSTTEWNDETLYQ [CHIT1] | 2.36 ± 0.26 | 2.61 ± 0.22
KACSLLDVAVHMPCLGHTFNAGIQ [ZBED1] | 2.19 ± 0.5 | 2.11 ± 0.36
KAFADPEVLRRLTSSVSCALDEAA [ANKRD17] | 3.08 ± 0.34 | 3.18 ± 0.21
KALNLLPANTQINDIRIFLEKVLE [VPS39] | 2.11 ± 0.41 | 2.04 ± 0.29
KAPVVECSITGDSSRVIAASYDKT [WDR88] | 4.56 ± 0.2 | 4.78 ± 0.12
KASGRFGLLQGTSAETSGGLLICL [SEPHS2] | 2.53 ± 0.83 | 2.41 ± 0.69
KCLSMFPHYICTLKQPHLLLEKYS [PNLIPRP1] | 2.67 ± 0.69 | 2.51 ± 0.59
KCQHYKKKRTEQEETIASLQMEVC [CEP70] | 4.008 ± 0.008 | 4.02 ± 0.56
KDKENKFLCVLMSDWFNFHGHMCI [CLK3] | 3.06 ± 0.31 | 3.08 ± 0.53
KDREFHELQGDFSVPDVPKSMAWC [VPS39] | 3.5 ± 0.33 | 3.31 ± 0.15
KEATVPCTEILTEKKDTITNDSLS [MIA2] |  | 5.49 ± 0.15
KECKDRGFEYDGKINAWDLYYYMT [NLN] | 2.52 ± 0.3 | 2.16 ± 0.29
KEEQRDYVFYLAVGNYRLKEYEKA [FIS1] | 2.39 ± 0.43 | 2.23 ± 0.36
KEHVPTWLQNTHVYSWPKNKKNIL [TRAF3IP2] | 2.71 ± 0.081 | 3.43 ± 0.24
KEISDDEAEEEKGEKEEEDKDDEE [HSP90AB1] | 5.66 ± 0.34 | 5.68 ± 0.19
KEKELSIELANIRDEVAFHTAKCE [MTUS2] | 4.46 ± 0.43 | 4.37 ± 0.46
KELEKRREESQHEIKDVLVWTNDQ [PPFIA4] | 5.27 ± 0.17 | 5.25 ± 0.21
KFCMNGAALCALGKDCFLELAPDF [ETS1] | 2.18 ± 0.33 | 2.01 ± 0.16
KFNGITEKEYKTYKENFLKRFQLT [USP39] | 3.59 ± 0.12 | 3.86 ± 0.15
KFTQDNLCRAQRERLASANLRVLV [TEKT4] | 2.15 ± 0.57 | 2.23 ± 0.26

Sequence | protein stability index (treatment: DMSO) | protein stability index (treatment: MLN4924 1 uM, 8 h)
KFYTWLWGVFYYFVSALGITAGAH [SCD] | 2.253 ± 0.003 | 2.84 ± 1.1
KGGQDVKKKVHLSEKIHPFIRKSI [PRIM1] | 3.85 ± 0.53 | 3.59 ± 0.48
KGYNIWTGGPDACLRCWDQRTIMK [TLE6] | 2.32 ± 0.18 | 2.45 ± 0.14
KHVLYVEHRHLNPDTELKRYFGAR [TCF25] | 2.29 ± 0.42 | 2.48 ± 0.36
KKMESEEDSNWEKSPDNEDSGDSK [GOLPH3L] | 5.63 ± 0.23 | 5.59 ± 0.26
KLDIQCDLKTLSDDIKESLESEGK [ATE1] | 5.19 ± 0.23 | 5.01 ± 0.1
KLIQKKLLDKTCDQVMEFSWSALW [ZER1] | 2.41 ± 0.41 | 2.35 ± 0.2
KLLLFLSTELQASQILQNKKHKNS [FAM98B] | 2.98 ± 0.75 | 2.5 ± 1.1
KLRRQVIQVVLNGMESYQEVTVQR [ZER1] | 2 ± 0.19 | 2.28 ± 0.57
KLSARDHQKLEREARICRLLKHSN [CAMK2B] | 3.16 ± 0.47 | 3.52 ± 0.17
KMEEDIKEEEEKDHNEAMKPEEPP [PCMTD1] | 5.57 ± 0.15 | 5.58 ± 0.31
KMGSYYINRTFFFDVHPPLGKMLI [POMT2] | 2.95 ± 0.75 | 3 ± 0.46
KNATRETTSTLKAWLNEHRKNPYP [IRX6] | 3.14 ± 0.23 | 3.37 ± 0.33
KNGKKWEILNFNQYYEACRKAAKS [ACSBG2] | 2.49 ± 0.21 | 2.62 ± 0.57
KPQDSSQPSDRLMTEKQQEEAEWE [CEP70] | 5.59 ± 0.4 | 5.45 ± 0.46
KPVVNVSYRPAYDQGGPVEILPFL [DUSP5] | 2.62 ± 0.14 | 2.66 ± 0.39
KPYTCSVCGKSFSRTTCLFLHLRT [ZNF8] | 2.54 ± 0.39 | 2.89 ± 0.7
KQEMGTYLRFIVSRMKERAIDLNK [ZMYND11] | 2.9 ± 0.73 | 2.71 ± 0.69
KQFHNEVLKAHNEYRQKHGVPPLK [GLIPR2] | 3.79 ± 0.19 | 3.72 ± 0.17
KRITASEALKHPWICQRSTVASMM [CAMK2D] | 2.61 ± 0.05 | 2.67 ± 0.27
KRLKHKDDSVMKATQQARKRNFIS [C22orf31] | 4.11 ± 0.27 | 4.19 ± 0.23
KRPARLHTKPSQAPAVEVAPAGAS [NOP53] | 4.77 ± 0.42 | 4.96 ± 0.19
KRQAVNKAVANMQGEMDRKCKQVK [ZMYND11] | 4.6 ± 0.68 | 4.71 ± 0.45

Sequence | protein stability index (treatment: DMSO) | protein stability index (treatment: MLN4924 1 uM, 8 h)
KRSSRRVQRHNSFSPNSPQFNVSG [NECAB1] | 4.12 ± 0.19 | 4.27 ± 0.13
KSEGLSGRVLRKLPFLAHALYVQA [TRIP13] | 2.3 ± 0.58 | 2.13 ± 0.42
KSKPDRKRAESDSRKSSIPNNKEI [PTPRD] | 5.329 ± 0.046 | 5.46 ± 0.16
KTKKLYIDSRARRNLGSINTELQD [SEC22B] | 3.87 ± 0.22 | 4.08 ± 0.21
KVASSDLVNMGISVVSYTLKDIHD [FLOT1] | 2.34 ± 0.17 | 2.37 ± 0.29
KWMERYLRDKTVMIIVAISPKYKQ [TRAF3IP2] | 2.65 ± 0.97 | 2.44 ± 0.34
KYEHELALRQTVEADVNGLRRVLD [KRT16] | 3.98 ± 0.15 | 4.09 ± 0.15
KYSLPWTTLDEFPLTRLGQLKACT [KCNG1] | 2.42 ± 0.25 | 2.61 ± 0.34
LAATTSMAYAKLMLTVMTKYQANI [FANCE] | 2.92 ± 0.32 | 3.26 ± 0.72
LAGSESLPVETLGPASRMDPESER [PBXIP1] | 5.2 ± 0.18 | 5.21 ± 0.21
LATQEPTDNQVRLRKRKEIREDRD [DLC1] | 5.41 ± 0.24 | 5.39 ± 0.16
LAVRSLRRVGGSRILLRMTLGREV [NLN] | 2.73 ± 0.68 | 2.37 ± 0.55
LDAMNYHLMPFRQHCRQSLASRIR [KLHL14] | 2.48 ± 0.46 | 2.2 ± 0.24
LDGHTISDLSRSSRGELIPISPST [MYBL2] | 4.14 ± 0.13 | 4.33 ± 0.3
LDSNGAGEKSENNSSNSDIVHVEK [BCL2L13] | 5.57 ± 0.22 | 5.6 ± 0.13
LDVWLSGGNDLCVWNRKLDLLCKT [WDR41] | 2.28 ± 0.35 | 2.19 ± 0.31
LEHGSIYIPSSYVDSHHEYPAMTF [ESR2] | 2.19 ± 0.18 | 2.06 ± 0.56
LEQRGTHAVVGVATALAPLQTDHY [SPSB2] | 3.6 ± 0.31 | 3.65 ± 0.15
LEYLYTANVTLSLDTVEEVLSVSK [KLHL14] | 2.41 ± 0.66 | 1.96 ± 0.36
LFEDIVAREYYSEADASHCIQQIL [CAMK2A] | 2.36 ± 0.069 | 2.62 ± 0.35
LFFVPCIFLYARPNSTFPIDKSMT [OR4A15] | 3.15 ± 0.51 | 3.43 ± 1.4
LFLMECEESPNGSEGACEKEKQSR [RHOBTB1] | 4.69 ± 0.44 | 4.83 ± 0.17
LFSIAPLIYGSMEMFPAAQQLYRH [JAGN1] | 2.55 ± 0.41 | 2.6 ± 0.57

Sequence | protein stability index (treatment: DMSO) | protein stability index (treatment: MLN4924 1 uM, 8 h)
LFVLLSVVCVLLNLAGFILGCQGA [FAM189A2] | 3.15 ± 0.38 | 3.25 ± 0.61
LGACVAPGGNLIVELARYLVDVRQ [DNAAF3] | 2.57 ± 0.44 | 2.12 ± 0.2
LGFRAFSGSGNRLDGKKKGVEPSP [UFD1] | 4.25 ± 0.46 | 3.94 ± 0.29
LGLSLTNGLALGPDLNILEDSAES [PSD2] | 4.56 ± 0.15 | 4.78 ± 0.31
LGSSRTPETVRMVLSNMEKLFCIP [IMPA1] | 2.08 ± 0.39 | 2.2 ± 0.26
LHILARDVHNRIVIRGLNTIPLFV [CTNNB1] | 2.73 ± 0.48 | 2.68 ± 0.56
LHSISDSVLFLQEFGALMSNYSLP [TRIM29] | 2.41 ± 0.43 | 2.12 ± 0.26
LIKDAIVSTQPAMMVNLRACSAPG [C2CD2L] | 2.82 ± 0.26 | 2.54 ± 0.31
LIKPSRVVAILAAACLLQLDGLIQ [GMCL1] | 3.11 ± 0.32 | 2.89 ± 0.27
LILESQNWRYATGGWETVFRPVSE [FUT8] | 2.42 ± 0.22 | 2.29 ± 0.11
LIRLFWTWHDERFLYMLMEYVPGG [PRKX] | 2.59 ± 0.47 | 2.48 ± 0.35
LITFDNKAHSGRIPISLETQAHIQ [MCOLN1] | 2.91 ± 0.26 | 3.04 ± 0.23
LKFDAYFQEDVPMSTEEQYRIRQV [EFHC1] | 3.44 ± 0.14 | 3.46 ± 0.28
LKIDFGDSARADDARQLFVLAGAA [GNAI1] | 2.59 ± 0.37 | 2.68 ± 0.27
LKPTASKLGAPLSGLQGLPECTRC [PDLIM4] | 3.24 ± 0.31 | 3.44 ± 0.12
LKRLYRAPIDWIEEYTTGMADCIL [ALG2] | 2.26 ± 0.68 | 2.28 ± 0.69
LKRSANQMGVSAKRRPKAQPTTLV [MED27] | 3.48 ± 0.17 | 3.72 ± 0.27
LKTQMKMSLKCLAARAVRANDINY [FEM1B] | 3.02 ± 0.44 | 2.67 ± 0.16
LKYFSDFRPYFTIHDSEFKEYTTR [DENND6A] | 2.19 ± 0.32 | 2.3 ± 0.2
LKYMEVTLRPTDSQSHCYRTCFSP [PCDHGC5] | 2.31 ± 0.2 | 2.25 ± 0.34
LLATAEQEQLSLSQRQAKELKLEQ [LRRC45] | 4.88 ± 0.21 | 5.02 ± 0.15
